This is an account of results in US20180105596A1 (ELSALYS BIOTECH, published 2018).

One assay has as its target T1, hTyro 3-ECD.
T1 construct: not the His-Strep tagged ECD m13; also called Recombinant Human Dtk-Fc Chimera (R&D Systems 859-DK-100); not shown: Human Fc, and any linker, of the commercial chimera (R&D Systems 859-DK-100)
T1 chain: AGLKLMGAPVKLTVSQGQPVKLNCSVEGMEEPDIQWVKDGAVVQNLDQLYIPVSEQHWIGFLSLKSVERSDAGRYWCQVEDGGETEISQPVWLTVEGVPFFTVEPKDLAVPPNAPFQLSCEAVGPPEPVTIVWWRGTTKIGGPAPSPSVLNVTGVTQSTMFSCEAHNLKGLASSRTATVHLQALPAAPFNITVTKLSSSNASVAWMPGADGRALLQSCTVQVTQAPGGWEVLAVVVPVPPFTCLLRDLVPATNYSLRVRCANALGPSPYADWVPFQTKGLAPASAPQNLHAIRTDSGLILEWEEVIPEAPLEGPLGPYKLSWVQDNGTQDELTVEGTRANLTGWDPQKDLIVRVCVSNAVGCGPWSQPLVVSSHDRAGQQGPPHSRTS
Briefly: ELISA, ECD coated 1 µg/well, scFv 1 µg/mL, anti-tag-HRP. As to the method:
(§1) Extracellular domains of hTyro 3 (859-DK-100), hAxl (154-AL-100) or hMer (891-MR-100) from R&D Systems were coated onto 96-wells microtiter plates (1 μg/well) in PBS and incubated overnight at 4° C. Plates were washed three times with PBS and blocked in PBS/3% BSA for 1 hour at RT. Plates were washed as above and scFvs were added at 1 μg/mL (diluted in PBS) and incubated for 1 hour at RT. Plates were washed three times with PBST (PBS/0.01% Tween-20) and secondary antibody anti-FLAG-HRP was added (Abcam, ab49763, 1/5000 dilution in blocking buffer) for 1 hour at RT. Plates were washed as above with PBST and signal was developed with Ultra-TMB reagent (Thermo Scientific, 34028).
In general terms: ELISA stands for enzyme-linked immunosorbent assay.

Assay [1] addresses T2, extracellular domain of human Mer, Fc fusion (R&D Systems 891-MR-100) (human, UniProt Q12866 21-505).
T2 construct: Bought protein; also called hMer; hMER; not shown: Fc of the bought ECD-Fc fusion
T2 sequence: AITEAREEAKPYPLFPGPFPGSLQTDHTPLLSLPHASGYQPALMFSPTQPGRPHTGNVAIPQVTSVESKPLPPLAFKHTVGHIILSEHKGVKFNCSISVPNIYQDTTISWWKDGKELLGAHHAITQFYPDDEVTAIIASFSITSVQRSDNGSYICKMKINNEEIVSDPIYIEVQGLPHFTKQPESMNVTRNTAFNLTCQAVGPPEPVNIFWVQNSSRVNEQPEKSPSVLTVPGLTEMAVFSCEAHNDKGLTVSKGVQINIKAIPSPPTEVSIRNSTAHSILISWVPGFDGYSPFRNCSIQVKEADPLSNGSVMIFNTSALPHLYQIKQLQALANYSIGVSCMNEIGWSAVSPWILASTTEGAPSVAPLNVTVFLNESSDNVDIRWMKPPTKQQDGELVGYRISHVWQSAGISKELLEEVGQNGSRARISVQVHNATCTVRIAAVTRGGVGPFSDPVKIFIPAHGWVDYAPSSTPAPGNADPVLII
The assay is described as above. As to the method: as §1

Assay [2] addresses T3, extracellular domain of human Axl, Fc fusion (R&D Systems 154-AL-100) (human, UniProt P30530 26-451).
T3 construct: Bought protein; also called hAxl; hAXL; not shown: Fc of the bought ECD-Fc fusion
T3 sequence: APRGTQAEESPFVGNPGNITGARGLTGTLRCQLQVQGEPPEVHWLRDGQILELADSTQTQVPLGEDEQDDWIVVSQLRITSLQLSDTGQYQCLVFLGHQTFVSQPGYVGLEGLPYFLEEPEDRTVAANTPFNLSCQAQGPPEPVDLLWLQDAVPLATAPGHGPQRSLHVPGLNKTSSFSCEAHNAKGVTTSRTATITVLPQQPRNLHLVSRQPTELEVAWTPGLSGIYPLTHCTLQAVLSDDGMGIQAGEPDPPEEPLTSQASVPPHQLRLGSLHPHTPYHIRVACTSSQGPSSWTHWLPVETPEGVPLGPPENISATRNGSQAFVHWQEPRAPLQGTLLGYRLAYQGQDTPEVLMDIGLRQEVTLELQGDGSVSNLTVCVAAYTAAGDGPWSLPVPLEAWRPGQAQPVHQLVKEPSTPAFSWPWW
The description is as above. As to the method:
as §1

Assay [3] addresses T4, Tyro3 ECD FNIII 1-FNIII-2.
T4 construct: also called FNIII 1 + FNIII 2 fragment of hTyro3 ECD, His-Strep tagged
T4 fragment: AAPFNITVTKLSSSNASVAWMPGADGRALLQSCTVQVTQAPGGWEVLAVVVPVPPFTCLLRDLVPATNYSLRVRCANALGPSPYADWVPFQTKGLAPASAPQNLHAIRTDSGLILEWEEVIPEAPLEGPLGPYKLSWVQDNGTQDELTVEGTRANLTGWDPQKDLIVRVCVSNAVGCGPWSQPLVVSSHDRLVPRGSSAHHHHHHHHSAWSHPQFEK
Briefly: sandwich ELISA, Strep-tagged fragment captured on StrepMAB plate, scFv 10 µg/mL (Table 17), anti-FLAG-HRP.

The target in assay [4] is T5, Ig-1 domain fragment of human Tyro3 ECD, His-Strep tagged (human).
T5 chain: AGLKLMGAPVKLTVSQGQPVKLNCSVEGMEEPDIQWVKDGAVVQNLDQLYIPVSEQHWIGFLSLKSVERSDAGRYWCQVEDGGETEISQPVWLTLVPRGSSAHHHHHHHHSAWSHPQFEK
The description is as above.

The target of a further assay is T6, Tyro3 ECD Ig2-FNIII 1.
T6 construct: also called Ig2 + FNIII 1 fragment of hTyro3 ECD, His-Strep tagged
T6 fragment: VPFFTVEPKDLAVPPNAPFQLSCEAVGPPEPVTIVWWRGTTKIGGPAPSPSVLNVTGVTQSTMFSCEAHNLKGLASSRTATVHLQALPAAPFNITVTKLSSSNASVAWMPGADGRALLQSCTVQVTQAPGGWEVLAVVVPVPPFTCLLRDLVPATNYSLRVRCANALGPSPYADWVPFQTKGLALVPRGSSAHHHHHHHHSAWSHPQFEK
The description is as above.

B1: anti-Tyro3 scFv 2414 (scFv, V domains shown)
VH: EVQLVQSGADVKKPGASLTISCQASGYTFTDYWISWVRQKPGKGLEWMGQINRHASNTMYGPSFQGHVTISADRSTATAYLQWRSLEASDTAMYYCVRSGGATSGGTIPEYYQHWGPGTLVTVSS
VL: SYELTQPPSVSVSPGQTARITCSGDALPKKYAYWYQQKSGQAPVLVIYEDWKRASGIPERFSGSSSGTMATLTISGAQVEDEADYYCYSQERKGNYFVFGGGTKLTVL
notes: Tested as a single-chain Fv made in E. coli
With B1, the binding result with hTyro 3-ECD is on record as “binds”; in assay [1], “no binding (tested: 1 µg/mL)”; in assay [2], “no binding (tested: 1 µg/mL)”; in assay [3], “no binding (tested: 10 µg/mL)”; in assay [4], “binds”.

B2: anti-Tyro3 scFv 2415 (scFv, V domains shown)
VH: EVQLVQSGADVKKPGASLTISCQASGYTFTDYWISWVRQKPGKGLEWMGQIRGPASATHYGPSFQGHVTISADRSTATAYLQWRSLEASDTAMYYCVRHQQQTSGGTIPEYYQHWGPGTLVTVSS
VL: SYELTQPPSVSVSPGQTARITCSGDALPKKYAYWYQQKSGQAPVLVIYEDKKRISGIPERFSGSSSGTMATLTISGAQVEDEADYYCYSTSTGGNYMVFGGGTKLTVL
notes: as for B1
For the molecule B2, the binding result is reported as “binds” in the assay with hTyro 3-ECD; “no binding (tested: 1 µg/mL)” in assay [1]; “no binding (tested: 1 µg/mL)” in assay [2]; “no binding (tested: 10 µg/mL)” in assay [3]; “binds” in assay [4]; “binds” with Tyro3 ECD Ig2-FNIII 1.

B3: anti-Tyro3 scFv 2717 (scFv, V domains shown)
VH: EVQLVQSGADVKKPGASLTISCQASGYTFTDYWISWVRQKPGKGLEWMGEIFLPPSTTVYGPSFQGHVTISADRSTATAYLQWRSLEASDTAMYYCVRQTRLTSGGTIPEYYQHWGPGTLVTVSS
VL: SYELTQPPSVSVSPGQTARITCSGDALPKKYAYWYQQKSGQAPVLVIYEDNKRGSGIPERFSGSSSGTMATLTISGAQVEDEADYYCYSKSPEGNYMVFGGGTKLTVL
notes: as for B1
For B3, the binding result is on record as “no binding (tested: 1 µg/mL)” in assay [1]; “no binding (tested: 1 µg/mL)” in assay [2]; “no binding (tested: 10 µg/mL)” in assay [3]; “binds” in assay [4]; “no binding (tested: 10 µg/mL)” with Tyro3 ECD Ig2-FNIII 1.

B4: anti-Tyro3 scFv 2711 (scFv, V domains shown)
VH: EVQLVQSGADVKKPGASLTISCQASGYTFTDYWISWVRQKPGKGLEWMGQIRGQHSSTLYGPSFQGHVTISADRSTATAYLQWRSLEASDTAMYYCVRHGASTSGGTIPEYYQHWGPGTLVTVSS
VL: SYELTQPPSVSVSPGQTARITCSGDALPKKYAYWYQQKSGQAPVLVIYEDAKRSSGIPERFSGSSSGTMATLTISGAQVEDEADYYCYSLSDSGNYFVFGGGTKLTVL
notes: as for B1
With B4, the binding result with hTyro 3-ECD was “binds”; in assay [1], “no binding (tested: 1 µg/mL)”; in assay [2], “no binding (tested: 1 µg/mL)”; in assay [3], “no binding (tested: 10 µg/mL)”; in assay [4] it was “binds”; with Tyro3 ECD Ig2-FNIII 1 it was “binds”.

B5: anti-Tyro3 scFv 2709 (scFv, V domains shown)
VH: EVQLVQSGADVKKPGASLTISCQASGYTFTDYWISWVRQKPGKGLEWMGAISRNGSTTYYGPSFQGHVTISADRSTATAYLQWRSLEASDTAMYYCVRSGGLTSGGTIPEYYQHWGPGTLVPVSS
VL: SYELTQPPSVSVSPGQTARITCSGDALPKKYAYWYQQKSGQAPVLVIYEDKKRVSGIPERFSGSSSGTMATLTISGAQVEDEADYYCYSLAVDGNYGVFGGGTKLTVL
notes: as for B1
In the case of B5, the binding result with hTyro 3-ECD is recorded as “binds”; in assay [1], “no binding (tested: 1 µg/mL)”; in assay [2] it was “no binding (tested: 1 µg/mL)”; in assay [3], “no binding (tested: 10 µg/mL)”; in assay [4] it was “binds”; with Tyro3 ECD Ig2-FNIII 1, “no binding (tested: 10 µg/mL)”.

B6: anti-Tyro3 scFv 2713 (scFv, V domains shown)
VH: EVQLVQSGADVKKPGASLTISCQASGYTFTDYWISWVRQKPGKGLEWMGRISRHGSQTYYGPSFQGHVTISADRSTATAYLQWRSLEASDTAMYYCVRAGGQTSGGTIPEYYQHWGPGTLVTVSS
VL: SYELTQPPSVSVSPGQTARITCSGDALPKKYAYWYQQKSGQAPVLVIYEDHKRASGIPERFSGSSSGTMATLTISGAQVEDEADYYCYSISPAGNYGVFGGGTKLTVL
notes: as for B1
Consider B6, for which the binding result in the assay with hTyro 3-ECD is given as “binds”; in assay [1] it was “no binding (tested: 1 µg/mL)”; in assay [2], “no binding (tested: 1 µg/mL)”; in assay [3], “no binding (tested: 10 µg/mL)”; in assay [4] it was “binds”; in the assay with Tyro3 ECD Ig2-FNIII 1, “binds”.

B7: anti-Tyro3 scFv 2410 (scFv, V domains shown)
VH: EVQLVQSGADVKKPGASLTISCQASGYTFTDYWISWVRQKPGKGLEWMGQIVPRASRTNYGPSFQGHVTISADRSTATAYLQWRSLEASDTAMYYCVRPYFQTSGGTIPEYYQHWGPGTLVTVSS
VL: SYELTQPPSVSVSPGQTARITCSGDALPKKYAYWYQQKSGQAPVLVIYEDEKRASGIPERFSGSSSGTMATLTISGAQVEDEADYYCYSQERNGNYAVFGGGTKLTVL
notes: as for B1
As for B7, the binding result with hTyro 3-ECD is “binds”; in assay [1], “no binding (tested: 1 µg/mL)”; in assay [2] it was “no binding (tested: 1 µg/mL)”; in assay [3], “no binding (tested: 10 µg/mL)”; in assay [4], “binds”.
